# Assay results published in patent publication US20220177596A1 (Bristol-Myers Squibb, published 2022).
# Target: human CD40 on primary human cells (tonsillar B cells, immature dendritic cells) (human, UniProt P25942 21-277)
# Assay: cell-based or functional assay
# human CD40 on primary human cells (tonsillar B cells, immature dendritic cells), sequence (P25942 21-277 limits assumed): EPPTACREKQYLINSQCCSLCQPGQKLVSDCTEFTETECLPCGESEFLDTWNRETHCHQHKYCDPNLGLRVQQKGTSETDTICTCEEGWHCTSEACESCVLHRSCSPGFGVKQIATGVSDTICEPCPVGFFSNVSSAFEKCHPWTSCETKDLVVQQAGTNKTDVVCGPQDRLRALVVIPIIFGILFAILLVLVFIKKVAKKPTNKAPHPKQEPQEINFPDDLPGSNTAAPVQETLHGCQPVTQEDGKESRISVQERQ
Binder,"IC50 for inhibition of proliferation of B cells, CD40L Trimer [µg/mL]","IC50 for inhibition of proliferation of B cells, CHO CD40L [µg/mL]"
"Y1238 (antibody, V domains shown) VH: QVQLQQSGAELVRPGTSVKVSCKASGYAFTNYLIEWVKQRPGQGLEWIGVINPGSGGTNYNEKFKGKATLTADKSSSTAYMQLSSLTSDDSAVYFCARSQLGRRFDYWGQGTTLTVSS VL: DIVMTQSHKFMSTSVGDRVSITCKASQDVRTGVAWYQQKPGQSPKLLIYSASYRNTGVPDRFTGSRSGTDFTFTISSVQAEDLAVYYCQQHYSPPYTFGGGTKLEIK",0.0034,0.0199

# Target: T1, human-CD40 monomer (human, UniProt P25942 21-193, limits assumed)
# T1 construct: also called hCD40-monomer; human-CD40-monomer protein
# Assay: SPR 2 pt screen, Ab on protein A
# Procedure: The VH sequences were formatted in the context of an IgG1.3f isotype. The Vκ sequences were formatted as a full light chain with a common CL sequence. All 55 combinations of these humanized HC and LC constructs, as well as the chimeric Y1238 molecule were expressed as 3 ml supernatants for binding analysis by SPR. Each of the 56 supernatants, as well as a purified Y1238-chimeric IgG1 antibody, was captured on a protein A sensor chip and tested for binding to two concentrations (i.e., 200 nM and 1000 nM) of hCD40-monomer using BIAcore™ SPR in a screening assay. All antibodies, except for those containing hz-HC3, captured at high levels (>300 RU) using a 100-fold dilution of the expression supernatant, indicating a high antibody titer in the supernatant except for the hz-HC3 samples. The kinetic data for the two concentrations of hCD40-monomer were fit to a 1:1 Langmuir model, to yield estimates of the kinetic and affinity values for these interactions, and for comparison of the different molecules. […] Also, for a given heavy chain, the antibodies with light chains hz-LC1 or hz-LC2 had higher CD40 affinity than those with hz-LC3, hz-LC4 or hz-LC5.
# T1 sequence (P25942 21-193 limits assumed): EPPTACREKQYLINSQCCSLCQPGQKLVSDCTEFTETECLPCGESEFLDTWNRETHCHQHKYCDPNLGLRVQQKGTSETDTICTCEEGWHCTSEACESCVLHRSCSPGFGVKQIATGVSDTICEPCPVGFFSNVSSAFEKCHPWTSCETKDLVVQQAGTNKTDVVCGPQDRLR
Binder,Kd [nM],koff [s⁻¹],kon [M⁻¹ s⁻¹]
"humanized Y1238 hz43 (hz-HC9 / hz-LC3), IgG1.3f (antibody, V domains shown, IgG1.3f heavy constant, common CL; expression supernatant; also called Sup 43) VH: QVQLVQSGAEVVKPGASVKVSCKASGYAFTNYLIEWVRQRPGQGLEWMGVINPGSGGTNYNEKFKGRVTLTADKSSSTAYMQLSRLRSDDTAVYFCARSQLGRRFDYWGQGTTVTVSS VL: DIQMTQSPSSLSASVGDRVTITCKASQDVRTGVAWYQQKPGQSPKLLIYSASYRNTGVPSRFSGSRSGTDFTFTISSLQPEDIAVYYCQQHYSPPYTFGGGTKVEIK",7.6,0.00029,39000
"humanized Y1238 hz45 (hz-HC9 / hz-LC5), IgG1.3f (antibody, V domains shown, IgG1.3f heavy constant, common CL; expression supernatant; also called Sup 45) VH: QVQLVQSGAEVVKPGASVKVSCKASGYAFTNYLIEWVRQRPGQGLEWMGVINPGSGGTNYNEKFKGRVTLTADKSSSTAYMQLSRLRSDDTAVYFCARSQLGRRFDYWGQGTTVTVSS VL: DIQMTQSPSSLSASVGDRVTITCKASQDVRTGVAWYQQKPGQAPKLLIYSASYRNTGVPSRFSGSRSGTDFTFTISSLQPEDIAVYYCQQHYSPPYTFGGGTKVEIK",9.6,0.00038,39000
"humanized Y1238 hz52 (hz-HC11 / hz-LC2), IgG1.3f (antibody, V domains shown, IgG1.3f heavy constant, common CL; expression supernatant; also called Sup 52) VH: QVQLVQSGAEVKKPGASVKVSCKASGYAFTNYLIEWVRQRPGQGLEWMGVINPGSGGTNYNEKFKGRVTMTRDKSSSTAYMELSRLRSDDTAVYFCARSQLGRRFDYWGQGTLVTVSS VL: DIQMTQSPSSLSASVGDRVTITCKASQDVRTGVAWYQQKPGKAPKLLIYSASYRNTGVPSRFSGSRSGTDFTFTISSLQPEDIATYYCQQHYSPPYTFGGGTKVEIK",6.5,0.00023,35000
"humanized Y1238 hz55 (hz-HC11 / hz-LC5), IgG1.3f (antibody, V domains shown, IgG1.3f heavy constant, common CL; expression supernatant; also called Sup 55) VH: QVQLVQSGAEVKKPGASVKVSCKASGYAFTNYLIEWVRQRPGQGLEWMGVINPGSGGTNYNEKFKGRVTMTRDKSSSTAYMELSRLRSDDTAVYFCARSQLGRRFDYWGQGTLVTVSS VL: DIQMTQSPSSLSASVGDRVTITCKASQDVRTGVAWYQQKPGQAPKLLIYSASYRNTGVPSRFSGSRSGTDFTFTISSLQPEDIAVYYCQQHYSPPYTFGGGTKVEIK",15,0.00056,37000
"humanized Y1238 hz49 (hz-HC10 / hz-LC4), IgG1.3f (antibody, V domains shown, IgG1.3f heavy constant, common CL; expression supernatant; also called Sup 49) VH: QVQLVQSGAEVKKPGASVKVSCKASGYAFTNYLIEWVRQRPGQGLEWMGVINPGSGGTNYNEKFKGRVTMTRDKSISTAYMELSRLRSDDTAVYYCARSQLGRRFDYWGQGTLVTVSS VL: DIQMTQSPSSLSASVGDRVTITCKASQDVRTGVAWYQQKPGQSPKLLIYSASYRNTGVPSRFSGSRSGTDFTFTISSLQAEDIAVYYCQQHYSPPYTFGGGTKVEIK",12,0.00048,39000
"humanized Y1238 hz50 (hz-HC10 / hz-LC5), IgG1.3f (antibody, V domains shown, IgG1.3f heavy constant, common CL; expression supernatant; also called Sup 50) VH: QVQLVQSGAEVKKPGASVKVSCKASGYAFTNYLIEWVRQRPGQGLEWMGVINPGSGGTNYNEKFKGRVTMTRDKSISTAYMELSRLRSDDTAVYYCARSQLGRRFDYWGQGTLVTVSS VL: DIQMTQSPSSLSASVGDRVTITCKASQDVRTGVAWYQQKPGQAPKLLIYSASYRNTGVPSRFSGSRSGTDFTFTISSLQPEDIAVYYCQQHYSPPYTFGGGTKVEIK",16,0.00061,39000
"humanized Y1238 hz47 (hz-HC10 / hz-LC2), IgG1.3f (antibody, V domains shown, IgG1.3f heavy constant, common CL; expression supernatant; also called Sup 47) VH: QVQLVQSGAEVKKPGASVKVSCKASGYAFTNYLIEWVRQRPGQGLEWMGVINPGSGGTNYNEKFKGRVTMTRDKSISTAYMELSRLRSDDTAVYYCARSQLGRRFDYWGQGTLVTVSS VL: DIQMTQSPSSLSASVGDRVTITCKASQDVRTGVAWYQQKPGKAPKLLIYSASYRNTGVPSRFSGSRSGTDFTFTISSLQPEDIATYYCQQHYSPPYTFGGGTKVEIK",8.8,0.00032,36000
"humanized Y1238 hz46 (hz-HC10 / hz-LC1), IgG1.3f (antibody, V domains shown, IgG1.3f heavy constant, common CL; expression supernatant; also called Sup 46) VH: QVQLVQSGAEVKKPGASVKVSCKASGYAFTNYLIEWVRQRPGQGLEWMGVINPGSGGTNYNEKFKGRVTMTRDKSISTAYMELSRLRSDDTAVYYCARSQLGRRFDYWGQGTLVTVSS VL: DIQMTQSPSSLSASVGDRVTITCKASQDVRTGVAWYQQKPGKAPKLLIYSASYRNTGVPSRFSGSGSGTDFTFTISSLQPEDIATYYCQQHYSPPYTFGGGTKVEIK",5.1,0.0002,39000
"humanized Y1238 hz48 (hz-HC10 / hz-LC3), IgG1.3f (antibody, V domains shown, IgG1.3f heavy constant, common CL; expression supernatant; also called Sup 48) VH: QVQLVQSGAEVKKPGASVKVSCKASGYAFTNYLIEWVRQRPGQGLEWMGVINPGSGGTNYNEKFKGRVTMTRDKSISTAYMELSRLRSDDTAVYYCARSQLGRRFDYWGQGTLVTVSS VL: DIQMTQSPSSLSASVGDRVTITCKASQDVRTGVAWYQQKPGQSPKLLIYSASYRNTGVPSRFSGSRSGTDFTFTISSLQPEDIAVYYCQQHYSPPYTFGGGTKVEIK",14,0.00055,39000
"humanized Y1238 hz44 (hz-HC9 / hz-LC4), IgG1.3f (antibody, V domains shown, IgG1.3f heavy constant, common CL; expression supernatant; also called Sup 44) VH: QVQLVQSGAEVVKPGASVKVSCKASGYAFTNYLIEWVRQRPGQGLEWMGVINPGSGGTNYNEKFKGRVTLTADKSSSTAYMQLSRLRSDDTAVYFCARSQLGRRFDYWGQGTTVTVSS VL: DIQMTQSPSSLSASVGDRVTITCKASQDVRTGVAWYQQKPGQSPKLLIYSASYRNTGVPSRFSGSRSGTDFTFTISSLQAEDIAVYYCQQHYSPPYTFGGGTKVEIK",8.5,0.00033,39000
"humanized Y1238 hz51 (hz-HC11 / hz-LC1), IgG1.3f (antibody, V domains shown, IgG1.3f heavy constant, common CL; expression supernatant; also called Sup 51) VH: QVQLVQSGAEVKKPGASVKVSCKASGYAFTNYLIEWVRQRPGQGLEWMGVINPGSGGTNYNEKFKGRVTMTRDKSSSTAYMELSRLRSDDTAVYFCARSQLGRRFDYWGQGTLVTVSS VL: DIQMTQSPSSLSASVGDRVTITCKASQDVRTGVAWYQQKPGKAPKLLIYSASYRNTGVPSRFSGSGSGTDFTFTISSLQPEDIATYYCQQHYSPPYTFGGGTKVEIK",6.7,0.00025,37000
"humanized Y1238 hz54 (hz-HC11 / hz-LC4), IgG1.3f (antibody, V domains shown, IgG1.3f heavy constant, common CL; expression supernatant; also called Sup 54) VH: QVQLVQSGAEVKKPGASVKVSCKASGYAFTNYLIEWVRQRPGQGLEWMGVINPGSGGTNYNEKFKGRVTMTRDKSSSTAYMELSRLRSDDTAVYFCARSQLGRRFDYWGQGTLVTVSS VL: DIQMTQSPSSLSASVGDRVTITCKASQDVRTGVAWYQQKPGQSPKLLIYSASYRNTGVPSRFSGSRSGTDFTFTISSLQAEDIAVYYCQQHYSPPYTFGGGTKVEIK",15,0.00056,38000
"humanized Y1238 hz53 (hz-HC11 / hz-LC3), IgG1.3f (antibody, V domains shown, IgG1.3f heavy constant, common CL; expression supernatant; also called Sup 53) VH: QVQLVQSGAEVKKPGASVKVSCKASGYAFTNYLIEWVRQRPGQGLEWMGVINPGSGGTNYNEKFKGRVTMTRDKSSSTAYMELSRLRSDDTAVYFCARSQLGRRFDYWGQGTLVTVSS VL: DIQMTQSPSSLSASVGDRVTITCKASQDVRTGVAWYQQKPGQSPKLLIYSASYRNTGVPSRFSGSRSGTDFTFTISSLQPEDIAVYYCQQHYSPPYTFGGGTKVEIK",18,0.00067,37000

# Target: T1, human-CD40 monomer
# Assay: SPR, Ab captured on protein A, CD40 monomer analyte
Binder,Kd [nM],koff [s⁻¹],kon [M⁻¹ s⁻¹]
5F11-45-IgG1.3f (antibody) heavy: QVQLVQSGAEVKKPGSSVKVSCKASGYTFTDLSMHWVRQAPGQGLEWMGYITPSSGYTAYNQKFKGKTTLTADKSTSTAYMELSSLRSEDTAVYYCARLILQRGAYWGQGTLVTVSSASTKGPSVFPLAPSSKSTSGGTAALGCLVKDYFPEPVTVSWNSGALTSGVHTFPAVLQSSGLYSLSSVVTVPSSSLGTQTYICNVNHKPSNTKVDKRVEPKSCDKTHTCPPCPAPEAEGAPSVFLFPPKPKDTLMISRTPEVTCVVVDVSHEDPEVKFNWYVDGVEVHNAKTKPREEQYNSTYRVVSVLTVLHQDWLNGKEYKCKVSNKALPAPIEKTISKAKGQPREPQVYTLPPSREEMTKNQVSLTCLVKGFYPSDIAVEWESNGQPENNYKTTPPVLDSDGSFFLYSKLTVDKSRWQQGNVFSCSVMHEALHNHYTQKSLSLSPGK light: DIVLTQSPDSLAVSLGERATINCRASKNVDSYGNSFMHWYQQKPGQPPKLLIYRASNLESGVPDRFSGSGSGTDFTLTISSLQAEDVAVYYCQQSNEDPLTFGQGTKLEIKRTVAAPSVFIFPPSDEQLKSGTASVVCLLNNFYPREAKVQWKVDNALQSGNSQESVTEQDSKDSTYSLSSTLTLSKADYEKHKVYACEVTHQGLSSPVTKSFNRGEC,1.6,0.00013,82000
